Reference: the supplement of paper PMC10065799, “High-throughput profiling of sequence recognition by tyrosine kinases and SH2 domains using bacterial peptide display” (eLife, 2023)

Molecular target: Hck (UniProt P08631)
Assay: phosphorylation enrichment, bacterial display (enrichment ratio); higher = better substrate or ligand; peptides without Tyr show the background
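Further: 11-residue human phosphosite peptides and single-mutation variants displayed on the E. coli surface, counted by deep sequencing, each peptide's frequency after selection divided by its frequency in the unselected input library; frequency after pTyr selection over input frequency; kinase dosed for 20-30% of maximal phosphorylation in three min.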

Sequence of Hck (P08631 whole entry, looked up): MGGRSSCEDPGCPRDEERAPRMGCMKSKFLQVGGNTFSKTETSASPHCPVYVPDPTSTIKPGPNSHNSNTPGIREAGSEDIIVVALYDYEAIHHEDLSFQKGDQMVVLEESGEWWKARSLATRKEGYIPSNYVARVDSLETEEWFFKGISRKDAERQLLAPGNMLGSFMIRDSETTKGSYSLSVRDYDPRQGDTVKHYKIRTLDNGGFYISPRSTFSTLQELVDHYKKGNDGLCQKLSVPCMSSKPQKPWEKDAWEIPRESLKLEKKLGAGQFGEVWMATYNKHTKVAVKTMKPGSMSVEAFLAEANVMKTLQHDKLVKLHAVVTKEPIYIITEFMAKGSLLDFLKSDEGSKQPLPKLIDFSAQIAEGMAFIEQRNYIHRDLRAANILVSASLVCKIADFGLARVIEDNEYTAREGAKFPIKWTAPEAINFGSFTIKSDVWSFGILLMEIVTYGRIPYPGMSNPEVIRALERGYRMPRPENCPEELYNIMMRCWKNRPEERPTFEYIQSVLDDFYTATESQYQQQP

Compared with RNFGTYTAGLS [RHBDD1_Y264_D262G_YF], LERYIYNRQEF [HLA-DPB1_Y59_E62Q] is higher in phosphorylation enrichment: 0.657 for the first, 1.32 for the second.

First: YASALYGQRRS [FGF11_Y162_R163G]
Second: VMIFAYLLHRG [PTEN_Y138_C136Y_YF]
The phosphorylation enrichment of the first is higher: 1.54 for the first, 0.406 for the second.

First: FHKALYTVRTF [PDE6C_Y266_S270T_YF]
Second: SFPPTYRYERG [INPPL1_Y661]
The phosphorylation enrichment of the first is higher: 0.67 for the first, 0.437 for the second.

Compared with KDFETYQPFQN [CTNND2_Y1157_YF], PGLSSYGVPAS [FLNB_Y1530] is lower in phosphorylation enrichment: 5.76 for the first, 0.482 for the second.

Compared with KYACSYTPVKA [FLNB_Y708_T703K], KYLENYLNRLL [PLD2_Y169] is lower in phosphorylation enrichment: 0.483 for the first, 0.414 for the second.

Going from TKLKDYYIFNK [CCDC42_Y149_A144T] to FAGRDYSLDEF [MYOF_Y1705_G1701A_YF], the phosphorylation enrichment falls from 0.752 to 0.51.

Going from IVRSLYEDLED [VHL_Y185] to QRALLYEDALY [UNC13D_Y56], the phosphorylation enrichment rises from 0.564 to 7.73.

Going from NCLRVYVAGRF [CRB1_Y711_E710V] to LGEGSYGKVKE [STK11_Y60], the phosphorylation enrichment rises from 0.414 to 0.862.

Going from GSESDYIVMPN [SCARB1_Y133] to YLNSSYINIST [IL23R_Y178_T175N], the phosphorylation enrichment rises from 0.527 to 0.591.

Going from TTPAVYARVTK [CTRB2_Y246_A250T] to EHFSFYGMKAV [SLC15A2_Y61_R57H_YF], the phosphorylation enrichment falls from 2.42 to 0.846.

Going from PLLLSYYLIKW [NUP160_Y773] to VVHGSYDEIEG [SEC24A_Y263_S261G], the phosphorylation enrichment falls from 0.628 to 0.469.

Compared with FLAVGDHKPHI [IDS_Y225_Y225D], REIIAYQPYGK [PRKCG_Y529_P524R] is higher in phosphorylation enrichment: 0.379 for the first, 0.563 for the second.

Going from FDNPVCQKTTE [LDLR_Y828_Y828C] to NKKYHYRELPV [ERN2_Y860_H858Y], the phosphorylation enrichment falls from 0.603 to 0.29.

First: IKNPQYFSDAC [NTRK1_Y496_E492K]
Second: CTTIDYNYMCN [TP53_Y234_H233D]
The phosphorylation enrichment of the first is lower: 0.418 for the first, 0.598 for the second.

Going from VLALWYYYLTN [ZDHHC23_Y127_H132N] to SIIKDYFHRGA [GATM_Y203], the phosphorylation enrichment falls from 0.738 to 0.43.

First: VGEGPYLLSDL [ABCC12_Y7_I9L]
Second: CATIHYNFMCN [TP53_Y234_T230A_YF]
The phosphorylation enrichment of the first is lower: 0.432 for the first, 0.577 for the second.

VFPATYHPDHW [EFCAB12_Y544_YF] showed a phosphorylation enrichment of 0.421.

Molecular target: Jak2 (UniProt O60674)
Assay: as above

Sequence of Jak2 (O60674 whole entry, looked up): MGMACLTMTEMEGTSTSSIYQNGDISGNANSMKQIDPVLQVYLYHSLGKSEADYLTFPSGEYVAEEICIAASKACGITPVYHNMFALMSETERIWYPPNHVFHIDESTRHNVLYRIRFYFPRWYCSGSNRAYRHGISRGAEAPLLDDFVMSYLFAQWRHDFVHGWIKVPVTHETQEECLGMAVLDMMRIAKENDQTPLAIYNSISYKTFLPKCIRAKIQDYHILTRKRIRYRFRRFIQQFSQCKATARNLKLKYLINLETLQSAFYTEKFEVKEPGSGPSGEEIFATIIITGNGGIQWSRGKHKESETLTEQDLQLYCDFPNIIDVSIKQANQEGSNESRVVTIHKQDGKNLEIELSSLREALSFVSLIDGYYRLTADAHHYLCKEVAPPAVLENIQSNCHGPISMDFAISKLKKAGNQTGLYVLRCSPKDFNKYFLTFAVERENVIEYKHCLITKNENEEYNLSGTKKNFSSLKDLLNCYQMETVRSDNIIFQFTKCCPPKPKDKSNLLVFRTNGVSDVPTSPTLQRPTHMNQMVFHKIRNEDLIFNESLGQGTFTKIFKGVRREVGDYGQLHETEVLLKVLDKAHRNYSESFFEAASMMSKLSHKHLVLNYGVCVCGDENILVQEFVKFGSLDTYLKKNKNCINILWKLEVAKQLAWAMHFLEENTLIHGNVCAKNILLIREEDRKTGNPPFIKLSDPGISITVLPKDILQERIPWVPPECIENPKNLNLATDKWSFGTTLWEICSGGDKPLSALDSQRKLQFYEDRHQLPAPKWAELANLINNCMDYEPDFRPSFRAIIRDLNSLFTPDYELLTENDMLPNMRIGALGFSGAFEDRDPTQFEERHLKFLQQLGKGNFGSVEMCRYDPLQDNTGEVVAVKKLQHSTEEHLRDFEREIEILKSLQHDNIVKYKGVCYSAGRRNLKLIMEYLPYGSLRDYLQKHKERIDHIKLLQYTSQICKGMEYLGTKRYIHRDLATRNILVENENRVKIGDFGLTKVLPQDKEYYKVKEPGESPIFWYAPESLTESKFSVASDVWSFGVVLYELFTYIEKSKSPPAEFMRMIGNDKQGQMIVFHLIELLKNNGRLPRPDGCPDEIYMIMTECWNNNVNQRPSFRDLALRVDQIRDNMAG

Compared with RNFGTYTAGLS [RHBDD1_Y264_D262G_YF], LERYIYNRQEF [HLA-DPB1_Y59_E62Q] is higher in phosphorylation enrichment: 0.315 for the first, 0.449 for the second.

First: YASALYGQRRS [FGF11_Y162_R163G]
Second: VMIFAYLLHRG [PTEN_Y138_C136Y_YF]
The phosphorylation enrichment of the first is lower: 0.604 for the first, 0.739 for the second.

Going from FHKALYTVRTF [PDE6C_Y266_S270T_YF] to SFPPTYRYERG [INPPL1_Y661], the phosphorylation enrichment falls from 0.907 to 0.449.

Going from KDFETYQPFQN [CTNND2_Y1157_YF] to PGLSSYGVPAS [FLNB_Y1530], the phosphorylation enrichment falls from 0.869 to 0.599.

Compared with KYACSYTPVKA [FLNB_Y708_T703K], KYLENYLNRLL [PLD2_Y169] is higher in phosphorylation enrichment: 0.598 for the first, 0.859 for the second.

First: TKLKDYYIFNK [CCDC42_Y149_A144T]
Second: FAGRDYSLDEF [MYOF_Y1705_G1701A_YF]
The phosphorylation enrichment of the first is higher: 1.49 for the first, 1.01 for the second.

Going from IVRSLYEDLED [VHL_Y185] to QRALLYEDALY [UNC13D_Y56], the phosphorylation enrichment rises from 1.01 to 1.08.

First: NCLRVYVAGRF [CRB1_Y711_E710V]
Second: LGEGSYGKVKE [STK11_Y60]
The phosphorylation enrichment of the first is lower: 1.08 for the first, 1.58 for the second.

Compared with GSESDYIVMPN [SCARB1_Y133], YLNSSYINIST [IL23R_Y178_T175N] is higher in phosphorylation enrichment: 1.03 for the first, 1.23 for the second.

First: TTPAVYARVTK [CTRB2_Y246_A250T]
Second: EHFSFYGMKAV [SLC15A2_Y61_R57H_YF]
The phosphorylation enrichment of the first is lower: 0.618 for the first, 0.901 for the second.

Going from PLLLSYYLIKW [NUP160_Y773] to VVHGSYDEIEG [SEC24A_Y263_S261G], the phosphorylation enrichment falls from 4.49 to 0.887.

Going from FLAVGDHKPHI [IDS_Y225_Y225D] to REIIAYQPYGK [PRKCG_Y529_P524R], the phosphorylation enrichment rises from 0.41 to 0.531.

First: FDNPVCQKTTE [LDLR_Y828_Y828C]
Second: NKKYHYRELPV [ERN2_Y860_H858Y]
The phosphorylation enrichment of the first is higher: 0.875 for the first, 0.379 for the second.

Going from IKNPQYFSDAC [NTRK1_Y496_E492K] to CTTIDYNYMCN [TP53_Y234_H233D], the phosphorylation enrichment rises from 0.634 to 0.838.

Going from VLALWYYYLTN [ZDHHC23_Y127_H132N] to SIIKDYFHRGA [GATM_Y203], the phosphorylation enrichment falls from 3.09 to 0.764.

First: VGEGPYLLSDL [ABCC12_Y7_I9L]
Second: CATIHYNFMCN [TP53_Y234_T230A_YF]
The phosphorylation enrichment of the first is lower: 0.83 for the first, 0.903 for the second.

In the case of VFPATYHPDHW [EFCAB12_Y544_YF], the phosphorylation enrichment is reported as 0.629.

Molecular target: MERTK (UniProt Q12866)
Assay: as above

Sequence of MERTK (Q12866 whole entry, looked up): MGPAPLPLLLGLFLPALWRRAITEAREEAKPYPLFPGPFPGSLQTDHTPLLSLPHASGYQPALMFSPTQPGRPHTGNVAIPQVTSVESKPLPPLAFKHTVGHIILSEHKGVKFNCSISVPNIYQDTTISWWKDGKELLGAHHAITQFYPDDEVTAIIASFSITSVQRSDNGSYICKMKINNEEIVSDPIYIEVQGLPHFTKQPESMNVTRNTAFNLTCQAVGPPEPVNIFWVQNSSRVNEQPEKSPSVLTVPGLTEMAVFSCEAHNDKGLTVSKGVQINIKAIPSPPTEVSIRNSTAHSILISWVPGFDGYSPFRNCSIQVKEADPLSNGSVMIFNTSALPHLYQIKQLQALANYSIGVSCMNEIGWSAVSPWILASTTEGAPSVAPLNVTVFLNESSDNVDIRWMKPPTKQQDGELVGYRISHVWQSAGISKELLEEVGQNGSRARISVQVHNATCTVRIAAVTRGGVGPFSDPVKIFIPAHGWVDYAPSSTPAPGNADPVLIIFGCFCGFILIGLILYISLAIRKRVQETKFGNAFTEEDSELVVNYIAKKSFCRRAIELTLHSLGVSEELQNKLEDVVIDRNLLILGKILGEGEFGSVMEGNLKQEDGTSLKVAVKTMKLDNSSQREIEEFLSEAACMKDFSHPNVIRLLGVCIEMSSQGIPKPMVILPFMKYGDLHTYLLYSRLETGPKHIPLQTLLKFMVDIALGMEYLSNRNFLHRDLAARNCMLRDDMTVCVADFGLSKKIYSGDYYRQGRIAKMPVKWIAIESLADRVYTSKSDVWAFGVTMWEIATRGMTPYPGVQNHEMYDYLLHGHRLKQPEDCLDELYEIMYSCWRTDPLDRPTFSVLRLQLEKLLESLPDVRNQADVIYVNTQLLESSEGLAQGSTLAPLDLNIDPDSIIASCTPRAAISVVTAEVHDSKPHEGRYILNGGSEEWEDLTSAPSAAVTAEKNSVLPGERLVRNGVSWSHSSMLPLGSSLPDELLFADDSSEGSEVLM

First: RNFGTYTAGLS [RHBDD1_Y264_D262G_YF]
Second: LERYIYNRQEF [HLA-DPB1_Y59_E62Q]
The phosphorylation enrichment of the first is lower: 0.302 for the first, 0.413 for the second.

Compared with YASALYGQRRS [FGF11_Y162_R163G], VMIFAYLLHRG [PTEN_Y138_C136Y_YF] is lower in phosphorylation enrichment: 0.505 for the first, 0.325 for the second.

Going from FHKALYTVRTF [PDE6C_Y266_S270T_YF] to SFPPTYRYERG [INPPL1_Y661], the phosphorylation enrichment falls from 0.523 to 0.505.

First: KDFETYQPFQN [CTNND2_Y1157_YF]
Second: PGLSSYGVPAS [FLNB_Y1530]
The phosphorylation enrichment of the first is lower: 0.463 for the first, 0.497 for the second.

Compared with KYACSYTPVKA [FLNB_Y708_T703K], KYLENYLNRLL [PLD2_Y169] is higher in phosphorylation enrichment: 0.414 for the first, 0.478 for the second.

Going from TKLKDYYIFNK [CCDC42_Y149_A144T] to FAGRDYSLDEF [MYOF_Y1705_G1701A_YF], the phosphorylation enrichment falls from 1.28 to 0.45.

Compared with IVRSLYEDLED [VHL_Y185], QRALLYEDALY [UNC13D_Y56] is higher in phosphorylation enrichment: 0.424 for the first, 5.12 for the second.

Going from NCLRVYVAGRF [CRB1_Y711_E710V] to LGEGSYGKVKE [STK11_Y60], the phosphorylation enrichment rises from 0.339 to 0.887.

First: GSESDYIVMPN [SCARB1_Y133]
Second: YLNSSYINIST [IL23R_Y178_T175N]
The phosphorylation enrichment of the first is lower: 0.538 for the first, 0.606 for the second.

First: TTPAVYARVTK [CTRB2_Y246_A250T]
Second: EHFSFYGMKAV [SLC15A2_Y61_R57H_YF]
The phosphorylation enrichment of the first is higher: 0.725 for the first, 0.417 for the second.

Going from PLLLSYYLIKW [NUP160_Y773] to VVHGSYDEIEG [SEC24A_Y263_S261G], the phosphorylation enrichment falls from 1.68 to 0.431.

First: FLAVGDHKPHI [IDS_Y225_Y225D]
Second: REIIAYQPYGK [PRKCG_Y529_P524R]
The phosphorylation enrichment of the first is lower: 0.271 for the first, 0.294 for the second.

Compared with FDNPVCQKTTE [LDLR_Y828_Y828C], NKKYHYRELPV [ERN2_Y860_H858Y] is lower in phosphorylation enrichment: 0.477 for the first, 0.28 for the second.

Going from IKNPQYFSDAC [NTRK1_Y496_E492K] to CTTIDYNYMCN [TP53_Y234_H233D], the phosphorylation enrichment rises from 0.344 to 0.449.

First: VLALWYYYLTN [ZDHHC23_Y127_H132N]
Second: SIIKDYFHRGA [GATM_Y203]
The phosphorylation enrichment of the first is higher: 3.86 for the first, 0.397 for the second.

First: VGEGPYLLSDL [ABCC12_Y7_I9L]
Second: CATIHYNFMCN [TP53_Y234_T230A_YF]
The phosphorylation enrichment of the first is lower: 0.385 for the first, 0.497 for the second.

VFPATYHPDHW [EFCAB12_Y544_YF] was tested, and the phosphorylation enrichment was 0.385.

Tested on: c-Abl (mouse)
Assay: as above

First: RNFGTYTAGLS [RHBDD1_Y264_D262G_YF]
Second: LERYIYNRQEF [HLA-DPB1_Y59_E62Q]
The phosphorylation enrichment of the first is higher: 0.445 for the first, 0.415 for the second.

Compared with YASALYGQRRS [FGF11_Y162_R163G], VMIFAYLLHRG [PTEN_Y138_C136Y_YF] is lower in phosphorylation enrichment: 0.978 for the first, 0.781 for the second.

Compared with FHKALYTVRTF [PDE6C_Y266_S270T_YF], SFPPTYRYERG [INPPL1_Y661] is lower in phosphorylation enrichment: 0.838 for the first, 0.373 for the second.

Compared with KDFETYQPFQN [CTNND2_Y1157_YF], PGLSSYGVPAS [FLNB_Y1530] is higher in phosphorylation enrichment: 0.741 for the first, 0.913 for the second.

Going from KYACSYTPVKA [FLNB_Y708_T703K] to KYLENYLNRLL [PLD2_Y169], the phosphorylation enrichment rises from 0.557 to 0.809.

Going from TKLKDYYIFNK [CCDC42_Y149_A144T] to FAGRDYSLDEF [MYOF_Y1705_G1701A_YF], the phosphorylation enrichment falls from 0.736 to 0.639.

Going from IVRSLYEDLED [VHL_Y185] to QRALLYEDALY [UNC13D_Y56], the phosphorylation enrichment rises from 0.68 to 1.04.

Going from NCLRVYVAGRF [CRB1_Y711_E710V] to LGEGSYGKVKE [STK11_Y60], the phosphorylation enrichment rises from 1.03 to 1.12.

First: GSESDYIVMPN [SCARB1_Y133]
Second: YLNSSYINIST [IL23R_Y178_T175N]
The phosphorylation enrichment of the first is higher: 0.752 for the first, 0.574 for the second.

First: TTPAVYARVTK [CTRB2_Y246_A250T]
Second: EHFSFYGMKAV [SLC15A2_Y61_R57H_YF]
The phosphorylation enrichment of the first is higher: 1.32 for the first, 0.624 for the second.

First: PLLLSYYLIKW [NUP160_Y773]
Second: VVHGSYDEIEG [SEC24A_Y263_S261G]
The phosphorylation enrichment of the first is higher: 1.2 for the first, 1.07 for the second.

Going from FLAVGDHKPHI [IDS_Y225_Y225D] to REIIAYQPYGK [PRKCG_Y529_P524R], the phosphorylation enrichment rises from 0.365 to 0.467.

First: FDNPVCQKTTE [LDLR_Y828_Y828C]
Second: NKKYHYRELPV [ERN2_Y860_H858Y]
The phosphorylation enrichment of the first is higher: 0.877 for the first, 0.515 for the second.

Going from IKNPQYFSDAC [NTRK1_Y496_E492K] to CTTIDYNYMCN [TP53_Y234_H233D], the phosphorylation enrichment rises from 0.464 to 0.682.

Compared with VLALWYYYLTN [ZDHHC23_Y127_H132N], SIIKDYFHRGA [GATM_Y203] is lower in phosphorylation enrichment: 1.05 for the first, 0.525 for the second.

First: VGEGPYLLSDL [ABCC12_Y7_I9L]
Second: CATIHYNFMCN [TP53_Y234_T230A_YF]
The phosphorylation enrichment of the first is lower: 0.586 for the first, 0.757 for the second.

VFPATYHPDHW [EFCAB12_Y544_YF] was tested, and the phosphorylation enrichment was 0.604.
